{"source": "patent US20250388669A1", "about": "(published 2025)", "key": {"[1]": {"target": "T1, B7H3 (human, UniProt Q5ZPR3 29-466, limits assumed)", "T1 construct": "Tumor associated antigen; also called huB7H3", "T1 sequence (looked up)": "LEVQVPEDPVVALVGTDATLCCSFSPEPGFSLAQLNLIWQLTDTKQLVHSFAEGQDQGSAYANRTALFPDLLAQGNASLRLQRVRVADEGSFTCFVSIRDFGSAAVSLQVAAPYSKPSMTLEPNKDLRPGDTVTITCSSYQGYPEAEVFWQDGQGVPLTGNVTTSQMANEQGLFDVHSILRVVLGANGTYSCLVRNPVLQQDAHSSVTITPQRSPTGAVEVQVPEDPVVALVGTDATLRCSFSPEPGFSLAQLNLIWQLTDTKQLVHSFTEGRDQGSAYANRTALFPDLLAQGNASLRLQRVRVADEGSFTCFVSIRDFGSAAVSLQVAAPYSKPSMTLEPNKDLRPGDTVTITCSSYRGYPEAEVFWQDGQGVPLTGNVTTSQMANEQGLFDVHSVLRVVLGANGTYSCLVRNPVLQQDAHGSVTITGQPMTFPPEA", "test": "FCM or ELISA"}, "[2]": {"target": "T2, CD137 (human, UniProt Q07011 24-186)", "T2 construct": "Reporter assays used GS-H2-huCD137 cells expressing human CD137; also called 4-1BB/CD137; huCD137", "test": "CD137 binding by FCM or ELISA"}}, "data": [{"binder": "Ly2122 (bispecific antibody, human IgG1, kappa, B7H3/CD137: two B7H3 Fabs, terminal CD137 Fv) chain 1: QVQLVQSGAEVKKPGASVKVSCKASGYTFTSYVMHWVRQKPGQGLEWIGYINPYNEGTESTDKFKGRATMTSDKSTSTVYMELSSLRSEDTAVYYCASIYYGYEGTYFGVWGQGTLVTVSSASTKGPSVFPLAPSSKSTSGGTAALGCLVKDYFPEPVTVSWNSGALTSGVHTFPAVLQSSGLYSLSSVVTVPSSSLGTQTYICNVNHKPSNTKVDKKVEPKSCDKTHTCPPCPAPEAAGPSVFLFPPKPKDTLMISRTPEVTCVVVDVSHEDPEVKFNWYVDGVEVHNAKTKPREEQYNSTYRVVSVLTVLHQDWLNGKEYKCKVSNKALPAPIEKTISKAKGQPREPQVYTLPPSREEMTKNQVSLWCLVKGFYPSDIAVEWESNGQPENNYKTTPPVLDSDGSFFLYSKLTVDKSRWQQGNVFSCSVMHEALHNHYTQKSLSLSPGGGGGSGGGGSGGGGSGGGGSQVQLVQSGAEVKKPGASVKVSCKASGYTFAGFEMHWVRQAPGQGLEWMGAIDPKTGGTDYNQKFKDRVTMTRDTSISTAYMELSRLRSDDTAVYYCARDLGYFDVWGQGTLVTVSS chain 2: QVQLVQSGAEVKKPGASVKVSCKASGYTFTSYVMHWVRQKPGQGLEWIGYINPYNEGTESTDKFKGRATMTSDKSTSTVYMELSSLRSEDTAVYYCASIYYGYEGTYFGVWGQGTLVTVSSASTKGPSVFPLAPSSKSTSGGTAALGCLVKDYFPEPVTVSWNSGALTSGVHTFPAVLQSSGLYSLSSVVTVPSSSLGTQTYICNVNHKPSNTKVDKKVEPKSCDKTHTCPPCPAPEAAGPSVFLFPPKPKDTLMISRTPEVTCVVVDVSHEDPEVKFNWYVDGVEVHNAKTKPREEQYNSTYRVVSVLTVLHQDWLNGKEYKCKVSNKALPAPIEKTISKAKGQPREPQVYTLPPSREEMTKNQVSLSCAVKGFYPSDIAVEWESNGQPENNYKTTPPVLDSDGSFFLVSKLTVDKSRWQQGNVFSCSVMHEALHNRFTQKSLSLSPGGGGGSGGGGSGGGGSGGGGSDIQMTQSPSSLSASVGDRVTITCRASQDIRSNLNWYQQKPGGAVKLLIYYTSRLHSGVPSRFSGSGSGTDYTLTISSLQPEDFATYFCQQSEKLPRTFGGGTKVEIR light: EIVLTQSPATLSLSPGERATLSCRASSSVSYMHWYQQKPGQAPRPWIYATSNLASGIPARFSGSRSGTDYTLTISSLEPEDFAVYYCQQWSSNTLTFGGGTKVEIKRTVAAPSVFIFPPSDEQLKSGTASVVCLLNNFYPREAKVQWKVDNALQSGNSQESVTEQDSKDSTYSLSSTLTLSKADYEKHKVYACEVTHQGLSSPVTKSFNRGEC", "values": [{"measurement": "binding result", "setting": "[1]", "result": "binds"}, {"measurement": "binding result", "setting": "[2]", "result": "binds"}]}]}
